# Measured values as given in article PMC5460035 (Nature Communications, 2017).
# B1: GST-ZNHIT2 (full-length) (natural protein, human, UniProt Q9UHR6 1-403, looked up)
# chain: MEPAGPCGFCPAGEVQPARYTCPRCNAPYCSLRCYRTHGTCAENFYRDQVLGELRGCSAPPSRLASALRRLRQQRETEDEPGEAGLSSGPAPGGLSGLWERLAPGEKAAFERLLSRGEAGRLLPPWRPWWWNRGAGPQLLEELDNAPGSDAAELELAPARTPPDSVKDASAAEPAAAERVLGDVPGACTPVVPTRIPAIVSLSRGPVSPLVRFQLPNVLFAYAHTLALYHGGDDALLSDFCATLLGVSGALGAQQVFASAEEALQAAAHVLEAGEHPPGPLGTRGAMHEVARILLGEGPTNQKGYTLAALGDLAQTLGRARKQAVAREERDHLYRARKKCQFLLAWTNENEAALTPLALDCARAHQAHAVVAEEVAALTGELERLWGGPVPPAPRTLIEELPS
# notes: ZNHIT2, human ZNHIT family member; cDNA amplified from a Mammalian Gene Collection clone, cloned into pGEX-4T-1; also called GST-tagged ZNHIT2; source: E. coli One Shot BL21 Star DE3, purified (Glutathione Sepharose 4B)
# Biological target: T1, RUVBL2-His (human, UniProt Q9Y230 1-463)
# T1 construct: RUVBL2, AAA+ ATPase; cDNA amplified from a Mammalian Gene Collection clone, cloned into pET-23a+; also called polyhistidine-tagged RUVBL2; source: E. coli One Shot BL21 Star DE3, purified (Ni-NTA agarose)
# T1 sequence (Q9Y230 whole entry): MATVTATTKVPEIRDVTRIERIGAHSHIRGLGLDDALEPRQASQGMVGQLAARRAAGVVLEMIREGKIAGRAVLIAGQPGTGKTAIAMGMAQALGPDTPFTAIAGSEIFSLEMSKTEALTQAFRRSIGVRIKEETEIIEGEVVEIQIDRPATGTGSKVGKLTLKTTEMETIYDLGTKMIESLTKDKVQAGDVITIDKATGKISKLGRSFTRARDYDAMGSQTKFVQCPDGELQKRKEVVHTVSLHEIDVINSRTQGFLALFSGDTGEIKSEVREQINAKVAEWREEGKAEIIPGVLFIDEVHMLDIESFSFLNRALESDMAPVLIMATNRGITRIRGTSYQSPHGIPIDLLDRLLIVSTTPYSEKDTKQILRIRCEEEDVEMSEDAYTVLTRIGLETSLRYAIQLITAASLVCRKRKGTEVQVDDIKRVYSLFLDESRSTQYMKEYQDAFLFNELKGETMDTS
# Assay: pull-down; 500 ng GST-tagged protein with 100 ng His-tagged protein and glutathione beads in 1 ml binding buffer (50 mM NaCl, 50 mM HEPES-KOH pH 7.6, 0.1% NP-40), 2 h at 4 °C; in presence of ATP, ADP or γ-S-ATP; immunoblot
# Settings: both partners purified
binder,measurement,value
B1,binding result,binds
